The nanobody polyreactivity screen of Harvey et al. (2022)

Assay: yeast display, Sf9 membrane polyspecificity reagent, FACS + sequencing; frameworks hold sequencing errors
In short: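 Galactose-induced (36–48 hours) yeast carrying a synthetic nanobody display library were exposed to 10% biotinylated, detergent-solubilized Sf9 membrane reagent at 4 °C for 1 hour. FACS followed streptavidin microbead enrichment, using low and high (top ~1%) gates for expression (anti-HA) and reagent binding (streptavidin). Colony PCR, MiSeq 2 × 250 sequencing and CDR-length filtering followed. Labels for polyreactivity reflect the gate of origin.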

| Sequence | polyreactivity (PSR sort gate) |
| --- | --- |
| QVQLVESGAGLVQAGGSLRLSCAASGFTFSRNAMGWYRPAPGKERELVASISGRGGRTYYADSVKGRFTISRDNAKKTVYLQMNSLKPEATAVYFCAARWRQRKSVRYGQQGYDYWGQGTQVTVSS | high polyreactivity |
| QVQLVESGAGLVQAGGSLRLSCAASGFTFYDYAMGWYRQAPGKERELVAAISRGGGSTYYADSVKGRFTISRDNAKNTVYLQMNSLKPEDTAVYYCNAALTRVSRFWGGDYYYWGQGTQVTVSS | high polyreactivity |
| QVQLVESGAGLVQAGGSLRLSCAASGGTFLYYAMGWYRQAPGKERELVAVINSNGGSTYYADSVKGRFTISRDNAKNTVYLQMNSLKPEDTAVYYCAADYQSYVYIGYGYWGQGTQVTVSS | low polyreactivity |
| QVQLVESGAGLVQAGGSLRLSCAASGIIFDWYTMGWYRQAPGKERELVAAISWRGGRTYYADSVKGRFTISRDNAKNTVYLQMNSLKPEDTAVYYCAAEAPVQPFYVFNTGIYELDYWGQGTQVTVSS | low polyreactivity |
| QVQLVESGAGLVQAGGSLRLSCAASGIISYRNGMGWYRQAPGKERELVASISKRADSTYYADSVKGGFTLSRDNAKNTVYLQMNSLKPEDTAVYYCAANFRDWHRYYPAGYLRRGYWGQGTQVTVSS | high polyreactivity |
| QVQLVESGAGLVQAGGSLRLSCAASGNTFYQYAMGWYRQAPGKERELVAAIDWSGGSTYADSVKGRFTISRDNAKNTVYLQMNSLKPEDTAVYYCEKYTYDYWGQGTQVTVSS | low polyreactivity |
| QVQLVESGAGLVQAGGSLRLSCAASGRTFRYSAMGWYRQAPGKERELVAAISSRGNTYYADSVKGRFTISRDNAKNTVYLQMNTLKPEDTAVYYCAAYVYRVQYDFDYWGQGTQVTVSS | high polyreactivity |
| QVQLVESGAGLVQAGGSLRLSCAASGRTFYNNAMGWYRQAPGKERELVAAISQRTGRTYYADSVKGRFTISRDNAKNTVYLQMNSLKPEDTAVYYCAARTLSYEYNYWGQGTQVTVSS | high polyreactivity |
| QVQLVESGAGLVQAGGSLRLSCAASGRTFYYYAMGWYRQAPGKERELVAAISSNGGSTYADSVKGRFTISRDNAKNTVYLQMNSLKPEDTAVYYCAAEPWWQEGDYWGQGTQVTVSS | high polyreactivity |
| QVQLVESGAGLVQAGGSLRLSCAASGSIFVYNDMGWYRQAPGKERELVAAITSSGGSTYYADSVKGRFTISRDNAKKTVYLQMNSLKPEDTAVYYCNVWDRPPTGYDYWGQGTQVTVSS | low polyreactivity |
| QVQLVESGAGLVQAGGSLRLSCAASGSIFWYNAMGWYRQAPGKERELVAAITSGGTTSYADSVKGRFTISRDNAKNTVYLQMNSLKPEDTAVYYCNADAVPFPTLVTYLYDYWGQGTQVSVSS | low polyreactivity |
| QVQLVESGAGLVQAGGSLRLSCAASGSIFYVYAMGWYRQAPGKERELVAAISSSAGSTYYADSVKGRFTISRDNAKNTVYLQMNSLKPEDTAVYYCAAKVRYSLRKYYYWGQGTQVTVSS | high polyreactivity |
| QVQLVESGAGLVQAGGSLRLSCAASGSTFAINAMGWYRQAPGKERELVAAISSRGSTNYADSVKGRFTISRDNAKNTVYLQMNSLKPEDTAVYYCAADRVWGTPQAYVPSQFDYWGQGTQVTVSS | low polyreactivity |
| QVQLVESGAGLVQAGGSLRLSCAASGSTFDSYVMGWYRQAPGKERDLVAAISRRGGSTYYADSVKGRFTISRDNAKNSVYLQMNSLKPEDTAVYYCARTVGYRTLLESDSWGQGTQVTVSS | high polyreactivity |
| QVQLVESGAGLVQAGGSLRLSCAASGSTFGINAMGWYRQAHGKEREFVASISWSTGTKYYADSVKGRFTISRDNAKNTVYLQMNSLKAEDTAVYYCAAVCSRFYGLPRYYYCGQGTQVTVSS | high polyreactivity |
| QVQLVESGAGLVQAGGSLRLSCAASGSTFPFYDMGWYRQAPGKEREFVAVISSSGGSTYYADSVKGRFTISRDNAKNTVYLQMNSLKPEDTAVYYCARRYPGRWYDYWGQGTQVTVSS | high polyreactivity |
| QVQLVESGAGLVQAGGSLRLSCAASGSTFSHNAMGWYRQEPGKESELVAAISWSGGGTYADSVKGRFTISRDNAKNTVYLQMNSLIPEDTAVYYCNKVSYPSTSSSWFDYWGKGTQVTVSS | low polyreactivity |
| QVQLVESGAGLVQAGGSLRLSCAASGSTFYGYGMGWYRQAPGKERELVAAITGSGDTTYYADSVKGRFTISRDNAKNTVYLQMNSLKPEDTAVYYCNARWHAEYDYWGQGTQVTVSS | low polyreactivity |
| QVQLVESGAGLVQAGGSLRLSCAPSGRTFGYNAMGWYRQAPGKERELVATISSSTVSTSYADSVKGRFTISRDNAKNTVYLQMNSLKPEDTAVYYCNARSRVSPTERVPYDSWGHGTQVTVSS | low polyreactivity |
| QVQLVESGAGLVQAGGSLRLSCAPSGSIFWWYAMVWYRQAPGKERELVAVISGGTSTYYADSVKGRFTISRDNAKNTVYLQMNSLKPEDTAVYYCNADVFSKVSYFRYIEYDYWGQGTQVTVSS | high polyreactivity |
| QVQLVESGAGLVQAGGSLRLSCASSGRTCDFYAMGWYRQAPGKERELVAAISSSCGSTYYADSVKGRFTISRDNAKNTVYLQMNSLKPEDTAVYYCAKDGRVHSPYDYWGQGTQVTVSS | low polyreactivity |
| QVQLVESGAGLVQAGGSLRLSCSASGRTFPGYAMGWYRQAPGKERELVATISSADSTNYADSVKGRFTISRDNGKNTVYLQMNSLKAEDTAVYYCAKRYGRNGAAAQYTGGYRYDYWGQGTQVSVSS | low polyreactivity |

| Sequence | polyreactivity (PSR sort gate) |
| --- | --- |
| QVQLVESGARLVQAGGSLRLSCAASGRTFSTYTMGWYRQAPGKERELVAAITSSGGGTYYADSVKGRFTISRDTAKNTVFLQMNSLKPEDTAVYYCATVRTYRPPVRRGYWGQGTQVTVSS | high polyreactivity |
| QVQLVESGAVLVQAGGSLRLSCAASGGTFSGYTMGWYRQAPGKERELVAAITRSGSSTYYADSVKGRFTISRDNAKHTVYLQMNSLKPEDTAVSYCAATYPTSSSSYYNRYYWGQGTQVTVSS | high polyreactivity |
| QVQLVESGEGLVQAGGSLRLSCAASGRTFDRNTMGWYTQAPGKERELVAAISSSGGSTYYADSVKGRFTISRDNAKNTVYLQMNSLKPEDTAVYYCAVRSRQYFRYGYDYWGQGTQVTVSS | high polyreactivity |
| QVQLVESGEGLVQAGGSLRLSCAASGSTFTYNAMGWYRHAPGKERELVAAIDWDGDTTYYADSVKGRFTISRDNAKNTVYLQMNSLKPEDTAVYYCAARPKYPYYARYDYWGQGTQVTVSS | high polyreactivity |
| QVQLVESGGAFVQAGGTLRLICAASGRIFLYYAMGWYRHAPGKERELFAAIRISGGSTYYADSVKGRFTISRDNAKNTVYLQMNSLNAVDPAVYYCNADHKTIYPKYRGRFYYWGQGTQVTVTS | high polyreactivity |
| QVQLVESGGAIVQAGGSLRLICAASGSIFYIYAMGWYRQAPGKERELVASITFSGDITYYADSVKGRFTISRDNAKYTVYLQMNSLKPEDTAVYYCAADYHEQSYAVTYDYWGQGTKVTVSS | low polyreactivity |
| QVQLVESGGALFQAGGSLRLSCAASGRIFTIYASRWYRQAPGKATELVATISRRGGSTYYADSVKGRFTISRDNAKNNVYLQMNSLKPEVSAVYYCAADSVITWWAYDYWGQGTQVTVSS | high polyreactivity |
| QVQLVESGGALVQAGGRLRLSCAASGLTLHRYTMGWYRQAPGKERELVAVITYGGGNTYYADSVKGRFTISRDNAKNTVYLQMNSLKPEDNAVYYCAARYPPFYWYDYWGQGTQVSVSS | low polyreactivity |
| QVQLVESGGALVQAGGSIRISCAASGSIFRDYAMGWSRQAPGKERELVAVISIAGRTNYADSVKGRFTISRDNAKNTVYLQMKRLKPEDTAVYYCAADSAWYGYDYWGQGTQVTVSS | low polyreactivity |
| QVQLVESGGALVQAGGSLLLSCAASGSIFQPYAMGWYRQAPGKERELVAAITNGGSTYYADSVKGRFTISRDNAKNTVYLQMNSLNPEDTAVYYFAADVQSSHVYDYWGQGTQVTVSS | low polyreactivity |
| QVQLVESGGALVQAGGSLRLSCAASAITYRYYAMGWNRQAPGKERELVATITRSGGSTYYADSVKGRFTISRDNAKNTVYLQMNSLKPEDTAVYYCAKGLYSTRYYYWGQGTQVTVSS | high polyreactivity |
| QVQLVESGGALVQAGGSLRLSCAASGFIFYSYAMGWYRHAPGKETELVAAITEDGDSTYYADSVKGRFTISRDNAKNTVYLQMNSLKPEDSAVYYCNTDLTFNGTSGDYDYWGQGTLVTVSS | low polyreactivity |
| QVQLVESGGALVQAGGSLRLSCAASGNTFQRYTMGWYRQAPGKERELVAAITWSGGNTYYADSVKGRFTISRDNAKNSVYLQMNSLKPEDTAVYDCNADYPTTAYDYWGQGTQVTVSS | low polyreactivity |
| QVQLVESGGALVQAGGSLRLSCAASGRIFRGYAMGWYRQAPGKERELVAAISSRGSRTYYADSVKGPFTISRDNAKNTVYLQMNSLKPEDTAVYYCAADVPGVTTSYAPYDSEYWGQGSQVTVSS | high polyreactivity |
| QVQLVESGGALVQAGGSLRLSCAASGRIFWDYVMGWYRQAPGKEREFVAAISLDGNITYYADSVKGRFTISRDNAKNTVYLQMNSLKPEDTAVFYCAADQYFFFRARGYDYWGQGTQVTVSS | low polyreactivity |
| QVQLVESGGALVQAGGSLRLSCAASGSIFDDNAMGWYRQAPGKERELVAAITGSGGRTYYADSVKGRFTISRDNAQNTVDLQMNSLKPEDTAVYYCAAQGAYNYFNAWYGYEYWGQGTQVTVSS | high polyreactivity |
| QVQLVESGGALVQAGGSLRLSCAASGSIFGFYMGWYRQAPGKERELVAAISGSGGNTYYADSVKGRFTISRDNAKNTVYLQMNSLKPEDTSVYYCAAERWDLWLLYDYWGQGTQVTVSS | high polyreactivity |
| QVQLVESGGALVQAGGSLRLSCAASGSIFIHYAMGWSRQAPGKERELVAAISRTGSTYYADSVKGRFTISRDNAKNTVYLQMNSLKPLDTAVYYCAKRISTRRYDFWGQGTQVTVSS | low polyreactivity |
| QVQLVESGGALVQAGGSLRLSCAASGSIFLFNTMGWYRQAPGKETELVAVISGGGITYYADSVKGRFTISRDNAKNTVYLQMNSLKPEDTAVYYCAADGGYWSQYDYWGQGTQVTVSS | low polyreactivity |
| QVQLVESGGALVQAGGSLRLSCAASGSIFSEYAMGWYRQAPGKERELVAAISRSGGTTYYADSVKGRFSISRDNAKNTVYLQMNSLKPEDTAVYYCAARYFRGSYPMGYWGQGTQVTVSS | high polyreactivity |
| QVQLVESGGALVQAGGSLRLSCAASGSIFTGYAMGWYRQAPGKERELVAAISSRGGSTYYADSVKGRFTISRDNATNTVYLQMNSLKPEDTAVYYCNAVYSGRFLRRDYWGQGTQVTVSS | high polyreactivity |
